Measured values reported in paper PMC3484126.
Read-outs that look alike come from different tables or passages of the source.

What was measured:
[1] = biological target: T1, KLF4 full-length (UniProt O43474-1 1-479); settings: protein: recombinant; tags: N-terminal 6xHis-lipoyl-TEV tag, cleaved; label: 5' Alexa488
[2] = biological target: T1, KLF4 full-length; settings: protein: recombinant; tags: N-terminal 6xHis-lipoyl-TEV tag, cleaved; label: 5' fluorescein
[3] = biological target: T1, KLF4 full-length; settings: protein: recombinant; tags: N-terminal 6xHis-lipoyl-TEV tag, cleaved; label: 5' fluorescein; remark: listed apart in the source

T1 sequence (O43474 other isoform, or with tags, fused parts or gaps): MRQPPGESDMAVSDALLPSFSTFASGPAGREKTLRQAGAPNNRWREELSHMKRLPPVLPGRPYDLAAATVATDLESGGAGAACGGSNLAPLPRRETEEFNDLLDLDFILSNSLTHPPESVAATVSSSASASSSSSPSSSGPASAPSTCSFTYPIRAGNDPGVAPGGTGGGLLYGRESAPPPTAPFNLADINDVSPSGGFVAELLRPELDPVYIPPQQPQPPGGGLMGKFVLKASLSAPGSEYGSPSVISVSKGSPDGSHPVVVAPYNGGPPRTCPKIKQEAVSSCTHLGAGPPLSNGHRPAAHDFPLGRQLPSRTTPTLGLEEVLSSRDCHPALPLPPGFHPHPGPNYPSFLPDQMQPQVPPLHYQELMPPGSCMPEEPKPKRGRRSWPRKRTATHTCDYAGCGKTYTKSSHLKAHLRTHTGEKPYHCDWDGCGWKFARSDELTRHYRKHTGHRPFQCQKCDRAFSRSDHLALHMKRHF

B1: *P (dsDNA)
DNA 1: GGACATGTCCGGACATGTCC
DNA 2: GGACATGTCCGGACATGTCC
B1: no binding [1].

B2: *K-1 (dsDNA)
DNA 1: AGGGTGTGGCCCGC
DNA 2: GCGGGCCACACCCT
B2: binds [2].

B3: *K-2 (dsDNA)
DNA 1: GGGCCACCCCGCC
DNA 2: GGCGGGGTGGCCC
B3 gave a binding signal [3] of 100 fold weaker than *K-1.
